Test results reported in IntAct's records for PubMed 29039417.

B1: BBSome complex member BBS2 (Homo sapiens), Q9BXC9 (parent)
chain: MLLPVFTLKLRHKISPRMVAIGRYDGTHPCLAAATQTGKVFIHNPHTRNQHVSASRVFQSPLESDVSLLSINQAVSCLTAGVLNPELGYDALLVGTQTNLLAYDVYNNSDLFYREVADGANAIVLGTLGDISSPLAIIGGNCALQGFNHEGSDLFWTVTGDNVNSLALCDFDGDGKKELLVGSEDFDIRVFKEDEIVAEMTETEIVTSLCPMYGSRFGYALSNGTVGVYDKTSRYWRIKSKNHAMSIHAFDLNSDGVNELITGWSNGKVDARSDRTGEVIFKDNFSSAIAGVVEGDYRMDGHIQLICCSVDGEIRGYLPGTAEMRGNLMDTSAEQDLIRELSQKKQNLLLELRNYEENAKAELASPLNEADGHRGIIPANTRLHTTLSVSLGNETQTAHTELRISTSNDTIIRAVLIFAEGIFTGESHVVHPSIHNLSSSICIPIVPPKDVPVDLHLKAFVGYRSSTQFHVFESTRQLPRFSMYALTSLDPASEPISYVNFTIAERAQRVVVWLGQNFLLPEDTHIQNAPFQVCFTSLRNGGHLHIKIKLSGEITINTDDIDLAGDIIQSMASFFAIEDLQVEADFPVYFEELRKVLVKVDEYHSVHQKLSADMADHSNLIRSLLVGAEDARLMRDMKTMKSRYMELYDLNRDLLNGYKIRCNNHTELLGNLKAVNQAIQRAGRLRVGKPKNQVITACRDAIRSNNINTLFKIMRVGTASS
partner: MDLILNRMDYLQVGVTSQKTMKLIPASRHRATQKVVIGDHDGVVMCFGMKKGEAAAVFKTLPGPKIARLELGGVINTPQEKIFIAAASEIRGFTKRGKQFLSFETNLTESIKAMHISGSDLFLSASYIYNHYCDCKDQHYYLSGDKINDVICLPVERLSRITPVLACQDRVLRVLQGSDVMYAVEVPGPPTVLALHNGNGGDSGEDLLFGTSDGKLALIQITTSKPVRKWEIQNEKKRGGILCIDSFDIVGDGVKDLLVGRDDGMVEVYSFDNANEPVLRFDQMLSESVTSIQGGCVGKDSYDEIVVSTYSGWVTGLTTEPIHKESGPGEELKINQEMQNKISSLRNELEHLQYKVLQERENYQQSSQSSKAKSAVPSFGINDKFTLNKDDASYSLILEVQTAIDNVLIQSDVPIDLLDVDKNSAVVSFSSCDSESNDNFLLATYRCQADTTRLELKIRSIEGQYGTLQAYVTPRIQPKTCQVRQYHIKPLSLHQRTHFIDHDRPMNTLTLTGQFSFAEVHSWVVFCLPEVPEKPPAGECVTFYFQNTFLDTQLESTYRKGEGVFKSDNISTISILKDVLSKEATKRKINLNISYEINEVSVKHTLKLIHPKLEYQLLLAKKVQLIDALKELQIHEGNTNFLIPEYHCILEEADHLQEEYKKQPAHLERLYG

Variants of: B1
Conditions: with BBS7, Q8IWZ6-2

Row | Variant | effect of a mutation on the interaction
1 | E629A | with no effect
2 | G565K | with no effect
3 | S497A | with no effect
4 | R374K | with no effect
5 | V430A | with no effect
6 | L647K | with no effect
7 | A504E | with no effect
8 | G688A | disrupting interaction strength
9 | V389K | disrupting interaction strength
10 | S440K | with no effect
11 | C698A | with no effect
12 | S551A | with no effect
13 | F575A | with no effect
14 | V675A | with no effect
15 | E357K | with no effect
16 | L544K | disrupting interaction strength
17 | A576E | with no effect
18 | L402C | disrupting interaction strength
19 | A419E | with no effect
20 | L669K | with no effect
21 | E494K | with no effect
22 | V510E | with no effect
23 | M640A | with no effect

Row | Variant | effect of a mutation on the interaction
24 | D613A | with no effect
25 | G541K | with no effect
26 | Q569E | with no effect
27 | L610K | with no effect
28 | L457K | disrupting interaction strength
29 | L710E | with no effect
30 | N664E | with no effect
31 | Y648A | with no effect
32 | S642E | with no effect
33 | M645E | with no effect
34 | T696A | with no effect
35 | P448A | with no effect
36 | V446A | with no effect
37 | D653A | with no effect
38 | D653K | with no effect
39 | L489A | with no effect
40 | H545E | with no effect
41 | K595A | with no effect
42 | I441A | with no effect
43 | I561A | with no effect
44 | K547A | with no effect
45 | K689A | with no effect
46 | K689E | with no effect

Row | Variant | effect of a mutation on the interaction
47 | D601E | with no effect
48 | I695A | with no effect
49 | D630E | with no effect
50 | N327E | with no effect
51 | V461M | disrupting interaction strength
52 | R506A | disrupting interaction strength
53 | R476K | with no effect
54 | I377A | with no effect
55 | T410E | with no effect
56 | F574E | with no effect
57 | L520A | with no effect
58 | G670A | with no effect
59 | P452K | with no effect
60 | I546A | with no effect
61 | K659E | with no effect
62 | I556E | with no effect
63 | A492K | with no effect
64 | V598E | with no effect
65 | V598A | with no effect
66 | Q677E | with no effect
67 | I679A | disrupting interaction strength
68 | Q680E | with no effect
69 | R382A | with no effect

Row | Variant | effect of a mutation on the interaction
70 | S390A | with no effect
71 | F469E | with no effect
72 | P432K | with no effect
73 | D566K | with no effect
74 | H617E | with no effect
75 | S570E | with no effect
76 | D336K | with no effect
77 | S493N | disrupting interaction strength
78 | L391E | with no effect
79 | G375K | with no effect
80 | V694E | with no effect
81 | G372E | with no effect
82 | N671A | with no effect
83 | P479K | with no effect
84 | H431K | with no effect
85 | R661E | with no effect
86 | R643A | with no effect
87 | T424E | with no effect
88 | D649A | with no effect
89 | R353A | with no effect
